Measurements published in article doi:10.1101/2023.04.20.537738 (bioRxiv, 2023).

Biological target: SARS-CoV-2 HexaPro Spike (SARS-CoV-2, WA-1 / Wuhan-Hu-1 …, UniProt P0DTC2, stabilised, N-linked glycans (built in the model))
Assay: cryo-EM structure

B1: STI-9167 Fab (therapeutically-modified version of FG-10A3) (Fab, V domains shown)
VH: QVQLVESGGGVVQPGRSLRLSCAASGFTFSSYGMNWVRQAPGKGLEWVAIIWYYGNNKYYVDSVKGRFTISRDNSKNTLYLQMNSLRAEDTAVYYCARKDYSKTYYGYYFDYWGQGTLVTVSS
VL: DIQMTQSPSSLSASVGDRVTITCRASQSIHSFLNWYQQKPGKPPNLLIYAASSLQSGLPSRFSGSGSGTDFTLTISSLQPEDFATYYCQQSYITPPTFGQGTKVEIK
  binding result: binds
